Measurements published in patent publication US20160002322A1 (INDUSTRY ACADEMIC COOPERATION FOUNDATION HALLYM UNIVERSITY, published 2016).
No end group written: not given here.

What was measured:
[1] = biological target: mouse TM4SF5 peptide (mTM4SF5) (mouse); test: SPR, Biacore T100, 25 C; biotinylated peptide captured on streptavidin-coated CM4 chip, antibody injected at 2-32 nM
Procedure: (§1) Affinity of anti-hTM4SF5 monoclonal antibody binding to human TM4SF5 peptide (hTM4SF5) and mouse TM4SF5 peptide (mTM4SF5) was measured using Biacore T100 (Biacore) at 25° C. Biotinylated peptides were captured on individual flow cell surface of a CM4 sensor chip coated with streptoavidin. Biotin served as a negative control. Anti-TM4SF5 monoclonal antibody at concentrations ranging from 2 to 32 nM was injected at a flow rate of […]. Data were evaluated using Biacore Bia evaluation software (version 3.0).

[2] = biological target: mouse TM4SF5 peptide (mTM4SF5) (mouse); test: SPR (Biacore T100, 25 C), biotinylated mTM4SF5 peptide captured on a streptavidin-coated CM4 chip, antibody injected at 2 to 32 nM
Procedure: as §1

[3] = biological target: T1, hTM4SF5 peptide (138-NRTLWDRCEAPPRV-151) (human, also: biotinylated for SPR capture (position not given here)); test: SPR (Biacore T100, 25 C), biotinylated hTM4SF5 peptide captured on a streptavidin-coated CM4 chip, antibody injected at 2 to 32 nM
T1 construct: also called human TM4SF5 peptide
T1 peptide: NRTLWDRCEAPPRV
Procedure: as §1

[4] = biological target: T1, hTM4SF5 peptide (138-NRTLWDRCEAPPRV-151); test: SPR, Biacore T100, 25 C; biotinylated peptide captured on streptavidin-coated CM4 chip, antibody injected at 2-32 nM; human TM4SF5 (not mouse); peptide on the chip per methods
Procedure: as §1

B1: anti-TM4SF5 monoclonal antibody 2D4-18 (antibody, V domains shown)
VH: GDLVKPGGSLKLSCAASGFTFSSYGMSWVRQTPDKRLEWVATISSGGGYTYYPDSVKGRFTISRDNAKNTLYLQMRSLKSEDTAMYYCARHEGFTTYYFDYWGQGTTLTVSS
VL: LSLPVSLGDQASISCRSSQSILHSSGNTYLEWYLQKPGQSPKLLIYKVSNRFSGVPDRFSGSGSGTDFTLKISRVEAEDLGVYYCFQGSHVPFTFGSGTKLEIKR
notes: DyLight 750-labelled in the biodistribution experiment; also called TM4SF5-targeted mAb (2D4-18); anti-hTM4SF5 monoclonal antibody
[1]
  Kd: ~2 nM
[2]
  Kd: 1.87 nM
[3]
  Kd: 2.74 nM
[4]
  Kd: ~2 nM
